Test results from the nanobody polyreactivity screen of Harvey et al. (2022).

Experiment: yeast display, Sf9 membrane polyspecificity reagent, FACS + sequencing; frameworks hold sequencing errors
Procedure, shortened: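 Polyreactivity labels are assigned by the sorting gate from which each nanobody was recovered. The gates were low and high (top ~1%), set on anti-HA fluorescence for expression and streptavidin fluorescence for reagent binding. Before sorting, galactose-induced (36–48 hours) yeast display cells were stained for 1 hour at 4 °C with 10% biotinylated, detergent-solubilized Sf9 membrane reagent.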

| Sequence | polyreactivity (PSR sort gate) |
| --- | --- |
| QVQLVESGGGLVQAGGSLRLSCAASGSTFWSNAMGWYRQAPGKERELVAAISISDGNTYYADSVKVRFTISRDNAKNTVYLQMNSLKPEDTAVYYCATVGSEDGDPGFDYWGQGTQVTVSS | low polyreactivity |
| QVQLVESGGGLVQAGGSLRLSCASSGSIFYDNAMGWYRQAPGKDRELVAAITVTGGSTYYADSVKGRFTISRDNAKNTVYLQMNSLKPEDTAVFYCAADPDYFDYWGQGTQVTVSS | low polyreactivity |
| QVQVVESGGGLVQAGGSLRLSCAASGSICHVNAMGWYRQAPGKERELVADISKRGASTYYADSVKGRFTISRDNAKNTVYLQMNSLKPEDTAVYYCAARVVTPRRQWYTYDYWGQGTQVSVSS | high polyreactivity |
| QVQLLESGGGLLQAGGSLRLSCAASGSIFDFNAMGWYRQAPGKERELVAAITYIGDSTYYADSVKGRFTISRDNAKNTVYLQMNILKPEDTAVYYCANYRYPSRQYSFPLGYDYWGQGTQVTVSS | high polyreactivity |
| QVQLVESGGGLFQAVGSLRLSCAASGFIFYDYAMGWYRQAPGKEMELVAAISKRGGSTYYADSVKGRFTISRDNAKNTVYLQMNSLKPEDTADYYCAAALWGWRYYYWGQGTQVTVSS | high polyreactivity |
| QVHLVESGGGLVQAGGSLRLSCAASGLTFAWYAMGWYSQAPGKERELVAVISNGGSTNDADSVKGRFTISRDNAKNTVYLQMNSLKPEDTAVYYCAAGWVWSGNDYYYWGQGTQVTVSS | low polyreactivity |
| HVQLVESAGGLVQEGGSLRVSCAASGFTFSFYAMGGYRQAPGKERELVAAISWNSGSTYYADSVKGRFTISRDNAKNTVYLQMNSLKPADTAVYYCAADVQRYRGITYYYWGQGTPVTVSS | high polyreactivity |
| QVQLVESGGGLVQAGGSLRLSCAASGLTFWEYAMGWYRQAPGQERELVAAITRGGNTYYADSVKGRFTISRDNAKNTVSLQMNSLKPEDTAVYYCAARGYYLTGGCRRYYYWGQGTQVTVSS | high polyreactivity |
| QVQLVESGGGLVQAGGSLRLSCAASGSTFTGYALGWYRQAPGKERELVAAISSGGSTYYADSVKGRFTISRDNAKNTVYLQMNSLKPEDTAVYYCAAAPRWKASRLYYWGQGTQVTVSS | high polyreactivity |
| QVQLVESGVGIVEAGGSLRLSCAASGRSFTYNAMVWYRQAPGKERELVAAISNTGSTYYADSVKGRFTISRDNAKNSVYLQMNCVKPEDTAVYYCAADRAEFRQDDDPGESNYWGQGTQVTVSS | low polyreactivity |
| QVQLVESGGGLVQAGGSLRLSCAASGTFHWYAMGWYIQAPGKEMELVAAITGSGGNTYYADSVKGRFTISRDNAKNTVYLQMNSLKPEDTAVYYCAARIYTWSVEYTGYGYWGQGTQVTVSS | high polyreactivity |
| QVQLVESGGGLVQAGGSLRLSCAASGSIFYYAMGWYRQAPGKERELVAAISSGGRTNYADSVKGRFTISRDNAKNTVYLQMNSLKPEDTAVYYCAAVSPYGSQYGYWGQGTQVTVSS | high polyreactivity |
| QVQLVESGGVLVQAGGSLRLSCAASGRTFGGNVMAWYRQAPGKERELVAAISYSGGSTHYADSVKGRFTNSRDNAKNTVYLQMNSLKPEDTAVYYCAKDGEVTGDYWGLGTQVTVSS | low polyreactivity |
| QVQLVESGGGLVQAGGSLSLSCAASGLTIYLYAKGWYRQPPGNERELVAAISRSGGSTYYADSVKGRFTISRDNAKNTVYLQMNSLKPEDTAVYYCAAVSYYPEIRKYYYWGQGTQVTVSS | high polyreactivity |
| QVQLQESGGGLVQAGGSLRLSCAASGYISHADEMGWYRQAPGKEHELVASISNGGSTNYADSVKGRFTISRDNAKNTVYQQMNSLKSEYTAVYYCAALTGQVDIHYYWCQGTQVTVSS | low polyreactivity |
| QVQLVESGGGLVQAGGSLRLSCAASGRTFFVNAMGWYRQAPGKERELVAVISTSGGSTSYADSVKGRFTISRDNPKYTVYFQMNSLKPEDTAVYYCAALVLGPYVSSFVYQQDDSWGLGTQVTVSS | high polyreactivity |
| QVQLVESGGGLVQAGGSLRLSCAASGSIFTPYAMGWYRQAPGKERELVAAISYSGGSTYYADSVKGRFTISRDNAKNTVYLQMNSLKPEDTAVYYCATDGYVYTPFDDDEDYWGQGTQVTVSS | low polyreactivity |
| QVQLVESGGGLVQAGGSLRLSCAASGSTFEPNAMGWSRQEPGKERELVASITSSGGSTYYADSVKGRFTISRDNAKNTVYLQMKSLKPEDTAVYYCNARVPPQGWGPWKAFDYWGQGTQVTVSS | low polyreactivity |
| QVQLVESGGGLFQAGGSLRLRWAASGNTFRYYVMGWYRQAPGKERELVADINWSGGRTYYADSVKWGFTISRDNAKNTVYFQMNSLKPEDTAVFYCNAARKLYRYSYDYWGQGTQVTLSS | high polyreactivity |
| QVQLVESGGGLVKAGGSLRLSCAASGFIFRYYAMGWYRQAPGKERELVAAITSTGRTYYADSVKGRFTISRDNAKNTVYLQMNSLKPEDTAVYYCAKRSYPWGQGTQVTVSS | low polyreactivity |
| QVQLVESGGGLVQAGGSLRLSCAASGIIFYDYAMGWYRQAPGKERELVATITRGGGTKYADSVKGRFTISRDNAKNTVYLQMNSLKQEDTAVYYCAADSHGDYEGDYWGQGTQVTVSS | low polyreactivity |
| QVQLVESGGGLVQAGGSLRLSCAASGRTFSVNAMGWYRQAPGKEREFVAAITGSTGSTFYADSVKGRFTISRDNAKNSVYLQMNSLKPDDTAVYYCAAGPWFYYWGQGTQVTVSS | low polyreactivity |

| Sequence | polyreactivity (PSR sort gate) |
| --- | --- |
| QVQLVESGGGLVQAGGSLRLTCAASGNTFFFNTMGWYRQAPGKERELVAVISSSGGTYYADSVKGRFTISRDNAKNTVYLQMNSLKQEDTAVYYCNADWHTHGYPTGKTGFKYYYWGQGTQVTVSS | low polyreactivity |
| QVHLVESGGGLVLAGGSLRLSCAASGSTFGINAMGWYRQAPGKEREFVASISWSTGTTYYADSVKGRFTISRDNAKNTVYLQMNSLKPEDTAVYSCAAVDYYWGYEQWYDYWGQGTQVTVSS | high polyreactivity |
| QVQLVESWGGLVQAGCRLRLSCAASGRTFLTYVMGWYRQAPGKERELVAAITRGGRTNYADSVKGRFTISRDNAKNTVFLQMNSLKPEDTAVYYCARDDTPRYDYWGQGTQVTVSS | low polyreactivity |
| QVQLVESGGGLFQAGGSLRLSCAATVSNYRYYAMGWYRQAPGKETELVAYITSSGGSTYYADSVKGLFTISRDYAKNTVYLQMNSLKPEDTAVYYCAALSWLYVYPFTEYDYWGQGTQVTVSS | low polyreactivity |
| QVQLVESGGGLVQAGGSLRLSCAASGIIWYYAMGWYRQAPGKERELVAAISWSSGSTYYADSVKGRFTISRDNAKNTVYLQMNSLKPEDSAVYYCAADVYLVKYDYWGQGTQVTVSS | high polyreactivity |
| KVQLVESGLGLVQAGGSLRISCAASGSIFTQYTMGWYRQAHGKERELVASISDSGGSTYYADSVKGRFTISRDNAKNTVYLQMNSLKPEDTSVYYCASRHDRPRESNPYDYWGQGTQVTVSS | low polyreactivity |
| QVQLVESGGGLVQAGGSLRLSCAASGSIFNPNAMGWYRQAPGKETELVAAISWISGRTYYADSGKGRFTISRDNAKNTVYLQMISLKTEDTAVYYCAARYPLTQSKYYYWGQWTQVTVSS | high polyreactivity |
| QVQLVESGRGLFQAGGSLRISCAPSGSNFGYYTMGWYRQAPGKDRELVAAITWSGGSTYYADSVKGRFTISRDNAKNTDYLQMYSLKPEDTAVYYCAADGFYYRNWGRIRYYYWGQGTQVTVSS | low polyreactivity |
| QVQLVESGGGLVQAGGSLRLSCAASGRIFYRYTMGRYRQAPGKERELVAAITSSSGSTYYADSVKGRFTISRDNAKNTVYLQMNSLKPEDTAVYYCAARIYHDIDTRSYYWGQGTQVTVSS | high polyreactivity |
| QVQLVESGGGLVQAGGSLRLSCAASGGTFGFNAMGWYRPAPGKERELVAAISSSGGRTYYADSVNGRFTISRDNAKNNVYLQMMSLKEEDTAVYYCAARVQVGGRSYVGYYYWGKGTQVTVSS | high polyreactivity |
| QVQLVESGGGLVQAGGSLRFSCAASGSTFTRYAMGWYRQAPGKERELVAAISWSGGITYYADSVNGRFTISRDNAKNTVYLQMNSLKPEDTAVYYCAAKRRYTRGGYGVDYWGQGTQVTVSS | high polyreactivity |
| QVQLLDSGGGLVQAGGSLRLSCAASGFTFDDYDKGWYRPPPGKERELVAAISWSGGSTYYADSVKGRFTISRDNAKNTVYLQMNSLKPEDTAVYYCAAERSYGGFDYWGQGTQVTVSS | low polyreactivity |
| QVQLVESGGGLVQAGGSLRLSCAASGFTFGVYARGWYRQAPGKERELVAAISRSSGRTYYADSVKWRFTISRDNAKNTVYLQMNSLKPEDTAVYYCAADLRYYGYYTRFRYYEMDYWGQGTQVTVSS | high polyreactivity |
| QVQLVESGGGLVQAGGSLRLSCAASGRTFRYYTMGWYRQAPGKEREFVAAISSTGGTYYADSVKGRFTISRDNAKNTVYLLMNSLKPEDTAFYYCAATFIQVVVNVQLYDYDYWGQGTQVTVSS | low polyreactivity |
| QVQLVESGGGLVQAGGSLRLSCAASGSTFSSYAMGRYRQAPGKERELVAVITRGTSTNYADSVKGRFTISRDNAKNTVYLQMNSLKPEDTAVYYCNARRGSRRFGYWGQGTQVNVSS | high polyreactivity |
| QVQLVESGGGLVQAGGSLRLSCADSGFIFPNYGMGSYRQAPGKERELVAYADSVKGRFTISRDNAKNTVYLQMNSLKPEDTAVYYCNADPPYTRWADYWHGGGYWGQGTQVTVSS | low polyreactivity |
| QVQLVESGGGLVQAGGSLRLSCAASGIIFNYNAMGWYRQAPGKERELVATISSGDSTNYADSVKGRFTISRDNAKNTVYLQMNSLKPEDTAVYYCAAESPSVFDGYAQLYIILEDYWGQGTQVTVSS | low polyreactivity |
| QVQLVESGGGLVQAGGSLRISCAASGYTFKNNTMGWYRQAPGKERELVAAISVSGGSTYYADSVKGRFTISRDNAKKTVYLQMNSLKPEDTAVYYCTALREVPLFLVYIGGCYWGQGTQVTVSS | low polyreactivity |
| QVQLVESGGGIVQAGGSLRLSCAASGFTILRYVMGWYRQAPGKERELVAAISYSGGRTYYADSVKGRFTISRDNAKHTVYLHMNSLKPEDPAVYYCAAARPFGYPPVMKYDYWGQVTQVTVSS | high polyreactivity |
| QVQLVESGGGLVQAGGSLRISCAASGRIFKYYGMGWYRQAPGKERELVAAITRGDSTNYADSVKGRFTISRDNAKNTVYLQMNSLKPEETAVYYCNVGTRRGYDYWGQGTQVTVSS | high polyreactivity |
| QVQLVESGGGLLHAGGSLRLSFAASGRIFYYNGMGWYRQAPGKERELVAAISRGGSTYYADSVKGRFTISRDNAKNTVYLQMNRLLPEDTAVYDCAAYRGGLVNYWGQGSQVTVSS | high polyreactivity |
